pKd: −log10 of the molar value.
How the values were obtained:
thrombin = thrombin (UniProt P00734)
[1] = biological target: LCTX-F2 (Lycosa singoriensis); assay: SPR; Biacore 3000; LCTX-F2 amine-coupled to CM5 (2,000 RU); FXIIa, kallikrein, FXa and thrombin as analytes, 0-100 ug/ml in twofold dilutions; 25 C; HBS-EP (10 mM HEPES pH 7.4, 3 mM EDTA, 150 mM NaCl, 0.05% P20); 30 ul/min, 120 s association, 300 s dissociation

Substance	pKd [1]	other results
LCTX-F2 (peptide)		increase of the relative protease activity of FXIIa (chromogenic substrate) at 0.03, 0.3 and 3 µM LCTX-F2: 1.2%, 44.0%, 96.0% (activated factor XII): 96%; increase of the activity of FXa (chromogenic substrate) at 3 µM LCTX-F2 (activated factor X): 34.8%; increase of the activity of kallikrein (chromogenic substrate) at 3 µM LCTX-F2 (kallikrein): 33.3%; increase of the activity of thrombin (chromogenic substrate) at 3 µM LCTX-F2 (thrombin): 36.9%
activated factor X (enzyme)	6.74	
activated factor XII (enzyme)	5.14	
kallikrein (enzyme)	5.34	
thrombin (from UniProt P00734 364-622; P00734 364-622) (enzyme)	6.15	
